Experimental data: patent US20230128344A1 (UNIVERSITY OF SOUTHERN CALIFORNIA, published 2023)

Biological target: T1, hCLL-1 on U937 human AML cells (human, UniProt Q5QGZ9 1-265)
T1 sequence (looked up): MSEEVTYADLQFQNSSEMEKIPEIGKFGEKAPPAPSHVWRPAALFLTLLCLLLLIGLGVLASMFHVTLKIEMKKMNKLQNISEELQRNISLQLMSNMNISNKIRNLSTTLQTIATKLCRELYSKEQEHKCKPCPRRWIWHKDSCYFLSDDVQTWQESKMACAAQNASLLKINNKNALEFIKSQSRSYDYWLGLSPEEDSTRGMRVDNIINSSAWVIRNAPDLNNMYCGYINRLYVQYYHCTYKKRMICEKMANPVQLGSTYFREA
Assay: cell-based or functional assay

B1: DAR2-ARC-ADC (DAR2-ARC-IgG conjugated with 2'-Cl-araNAD+-MMAF) (antibody)
heavy: not shown
light: ENVLTQSPAIMSASPGEKVTMTCRASSNVISSYVHWYQQRSGASPKLWIYSTSNLASGVPARFSGSGSGTSYSLTISSVEAEDAATYYCQQYSGYPLTFGAGTKLELKRAAAAPSVFIFPPSDEQLKSGTASVVCLLNNFYPREAKVQWKVDNALQSGNSQESVTEQDSKDSTYSLSSTLTLSKADYEKHKVYACEVTHQGLSSPVTKSFNRGEC
modifications: 2'-Cl-arabinose-ADP-MMAF on Glu226 of the CD38 domain (CD38 numbering)
in vitro cytotoxicity EC50 on U937 (CLL-1+) cells (MTT, 72 hours): 0.9 nM
